Data published in patent publication US20060141529.

Key:
[1] = tested on: Cortactin (endogenous, immunoprecipitated from PDGF-stimulated cells)
[2] = target: CRK (positive control substrate printed on the Human ProtoArray microarray) (UniProt P46108)
[3] = target: Shp1 (on Human ProtoArray microarray) (UniProt P29350)
Sequence of Shp1 (on Human ProtoArray microarray) (P29350 whole entry): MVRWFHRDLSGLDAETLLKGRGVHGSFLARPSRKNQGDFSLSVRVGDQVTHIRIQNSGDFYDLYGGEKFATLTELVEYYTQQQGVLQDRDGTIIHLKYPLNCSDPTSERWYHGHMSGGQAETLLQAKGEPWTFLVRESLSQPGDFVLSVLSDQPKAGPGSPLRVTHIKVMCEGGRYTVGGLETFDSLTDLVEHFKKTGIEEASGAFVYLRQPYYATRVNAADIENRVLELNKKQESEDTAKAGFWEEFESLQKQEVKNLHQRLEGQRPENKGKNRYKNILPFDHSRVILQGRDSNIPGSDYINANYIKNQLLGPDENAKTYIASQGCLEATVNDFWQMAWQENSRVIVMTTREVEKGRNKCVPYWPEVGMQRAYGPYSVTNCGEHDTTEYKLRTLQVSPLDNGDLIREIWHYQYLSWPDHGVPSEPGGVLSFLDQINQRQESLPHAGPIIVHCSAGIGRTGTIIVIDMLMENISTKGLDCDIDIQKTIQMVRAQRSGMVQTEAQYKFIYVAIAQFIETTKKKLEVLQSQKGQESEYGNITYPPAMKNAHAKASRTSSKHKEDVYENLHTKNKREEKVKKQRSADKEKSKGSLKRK

Sequence of CRK (positive control substrate printed on the Human ProtoArray microarray) (P46108 whole entry): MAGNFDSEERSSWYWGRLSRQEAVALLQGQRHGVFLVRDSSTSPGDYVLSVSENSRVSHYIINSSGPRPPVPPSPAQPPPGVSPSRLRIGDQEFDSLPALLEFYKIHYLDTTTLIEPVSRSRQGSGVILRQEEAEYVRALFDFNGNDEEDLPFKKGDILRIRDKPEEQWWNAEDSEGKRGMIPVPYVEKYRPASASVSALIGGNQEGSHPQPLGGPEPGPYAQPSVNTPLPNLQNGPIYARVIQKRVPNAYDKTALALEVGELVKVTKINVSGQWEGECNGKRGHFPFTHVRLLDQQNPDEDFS

| Substance | PDGF-stimulated tyrosine phosphorylation of Cortactin (immunoprecipitation and anti-phosphotyrosine immunoblot) [1] | phosphorylation on Human ProtoArray microarray (radiolabeled ATP) [2] | phosphorylation on Human ProtoArray microarray [3] |
| --- | --- | --- | --- |
| ABL (endogenous, in wild-type cell line) | PDGF stimulates phosphorylation of Cortactin 3-fold in wild type cells but not in abl-/-, arg-/-, and abl-/-arg-/- |  |  |
| ARG (endogenous, in wild-type cell line) | PDGF stimulates phosphorylation of Cortactin 3-fold in wild type cells but not in abl-/-, arg-/-, and abl-/-arg-/- |  |  |
| ARG kinase (protein tyrosine kinase ARG used to probe the Human ProtoArray microarrays) |  | This kinase phosphorylated the control substrate CRK in every subarray | one of the proteins proven to be a substrate for ARG on a Human ProtoArray microarray, Shp1 |
